Among the data in patent US20180244762A1 are Kd, IC50 and Inhibition of PDGF induced proliferation of HPVPs, IC50 values, retold here.

In assay [1] the target is recombinant human PDGF-BB (human) (UniProt P01127). The assay is described as follows: optical biosensor (Proteon XPR36 / Biacore 2000), binder amine-coupled, rhPDGF-BB injected, 25 C. Background: In SPR one partner is held on a chip, and binding of the other changes the refractive index at the surface.
Assay [2] has the same target. Briefly: competitive ELISA: binder preincubated with 0.2 nM rhPDGF-BB, competitor immobilized PDGFR/Fc. (An ELISA detects its analyte on a solid surface through an enzyme-linked reagent.)
The target is the same in assay [3]. Briefly: cell-based or functional assay.

Sequence of recombinant human PDGF-BB (human) (P01127 82-190): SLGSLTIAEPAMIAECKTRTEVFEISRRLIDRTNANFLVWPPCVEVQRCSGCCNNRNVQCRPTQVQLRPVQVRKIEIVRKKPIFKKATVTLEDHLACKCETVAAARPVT

The term Kd denotes the equilibrium constant for the complex coming apart. As a reminder, the IC50 is the concentration needed to halve the response being measured. “reference anti-PDGF-BB antibody (R&D Systems, Catalog # AB-220-NA)”: in assay [1], the Kd came to 0.107 nM. In addition, the IC50 in assay [2] came to 0.066 nM. The Inhibition of PDGF induced proliferation of HPVPs, IC50 in assay [3] stood at 5.4 nM.
